Consider one substance from patent US20230219996A1.

The target of assay [1] is SARS-CoV-2 spike (Wuhan, wild-type) (SARS-CoV-2) (UniProt P0DTC2). The assay can be described thus: MSD V-PLEX ACE2 kit, sVNT, positive control; competitor ACE2 (mouse study).
For assay [2] the target is unchanged. The assay can be described thus: MSD V-PLEX ACE2 kit, sVNT, positive control; competitor ACE2 (NHP study).

For “ACE2 Calibration Reagent (included in the MSD kit)”, the ACE2-binding percent inhibition in assay [1] and in assay [2] was 100% throughout.
